# Experimental data taken from the supplement of paper PMC7125110.
# ± gives the standard error. Fewer inactive variants are shown than the library holds.
# B1: glmS ribozyme (parent)
# chain: AUAAAAGCGCCAGAACUACAGAAAUGUAGUUGACGAGGAGGAGGUUUAUCGAAUUUUCGGCGGAUGCCUCCAAA
# Variants of: B1
# Assay: self-cleavage kobs at 2500 uM GlcN6P; higher = faster cleavage; RNA array
# Conditions: with glucosamine-6-phosphate
# Summary of the method: (§1)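 On sequenced MiSeq chips, barcoded ribozyme variants were made in situ by E. coli RNA polymerase and followed at 37 °C through a hybridised Cy3 probe. Glucosamine-6-phosphate was flowed in at 40 μM to 10 mM in HEPES/KCl/Mg(OAc)2 buffer. Exponential fits to normalised per-tile medians gave kobs, and weighted Michaelis–Menten fits gave kcat and KM.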
row,Variant,self-cleavage kobs at 2500 uM GlcN6P [s⁻¹]
1,AUAAAAGCGCCAGAACUACAGAAAUGUAGUUGACGAGGAUAAGGUUUAUCGAAUUUUCGGCGGAUGACUUCAAA [G40U G41A C67A C70U],0.000143 ± 3.7e-05
2,AUAAAAGCGUCAGCUCUACAGAAAUGUAGUUGACGAGGAGAAGGUUUAUCGAAUUUUCGGCGGAUGCCUCCAAA [C10U A14C A15U G41A],< 1e-05
3,AUAAAAGCGCGAGAACUACAGAAAUGUAGUUGACGAGGAGGAGGUUUAUCAAAUUUUCGGCGGCUGCCUCCAAA [C11G G51A A64C],< 1e-05
4,AUAAAAGCGCCAGAACUACAGAAAUGUAGUUGACGAUGAGGCGGUUAUUCGAAUUAUCGGCGGAUGCCUCCAAA [G37U A42C U47A A48U U56A],< 1e-05
5,AUAAAAUCGCGAAUACUACAGAAAUGUAGUUUCCGAAGAAGAGGUUCAUCGAAUUUUCGGCGGAUGCCUCCAAA [G7U C11G G13A A14U G32U A33C G37A G40A U47C],< 1e-05
6,AUAAAAGCGCCAGAACUACAGAAAUGUAGUUGACGAGGAGGAGGUUUAUCGAAAUUUCGGCGGAUGAUUCCAAA [U54A C67A C68U],9e-05 ± 2.1e-05
7,AUAAAAGCGCCAGAACUACAGAAAUGUAGUUGAUGAGGCGGAGGUUUAUCGAAUUUUCGGCGGAUGCUUCCAAA [C34U A39C C68U],< 1e-05
8,AUAAAAGCGCCACAUCUACAGAAAUGUAGUUGACGAGGAGUGCGUUUAUCGAAUUUUCGGCGGAUGCCUCCAAA [G13C A15U G41U A42G G43C],< 1e-05
9,AUAAAAGAGCCAGAACUACAGAAAUGUAGUUGACGAGGAGGAGGUGUAUCGAAUUUUCGGAGGACGCCUCCAAA [C8A U46G C61A U65C],< 1e-05
10,AUAAAAGCGCCAGUACUACAGAAAUGUAGUUGACGAGGAUGAGGUUUAUCGAAUUUUCGACGGAUGCCUGUAAA [A14U G40U G60A C70G C71U],< 1e-05
11,AUAAAAGCGCCAGUACUACAGAAAUGUAGUUGGCGAGGAGGAGGUUUAUCGGAUUUUCGGCGGAUGCUUGAAAA [A14U A33G A52G C68U C70G C71A],0.000285 ± 9.7e-05
12,AUAAAAGCUCCAGAACUACAGAAAUGUAGUCGACGAGGAGGACGUUUAUCGAAUUUUCGGCGGAUGUCUCCAAA [G9U U31C G43C C67U],< 1e-05
13,AUAAAAGCGCCAGAACUACAGAAAUGUAGUUGCCGAGGAGGAGGUUUAUCAAUUUUUCGGCGGAUGCCUCCAAA [A33C G51A A53U],< 1e-05
14,AUAAAAGCGCCAGUACUACAGAAAUGUAGUUGACGAGGAGGAGGUUUAUCCAAUUUUCGGCGGGUGCCUCCAAA [A14U G51C A64G],< 1e-05
15,AUAAAAGCGCCAGAACUACAGAAAUGUAGUUGACGAGGAUGAGGUUUAUCGAAUUUUCGGCGGAUACCUUCAAA [G40U G66A C70U],0.0016 ± 0.00053
16,AUAAAAGCGCCAGAACUACAGAAAUGUAGUUGACGAGGGGGAGGUUUAUCGAAAUUUCGGCGGAUGCCUCGAAA [A39G U54A C71G],0.00114 ± 0.00046
17,AUAAAAGCGCCAGAACUACAGAAAUGUAGUUGACGAAGAAGAGGUUUAUCGAAUUAUCGGCGGAUGCCUCCAAA [G37A G40A U56A],0.000109 ± 1.8e-05
18,AUAAAAGCGACAGAACUACAGAAAUGUACUUGACGAGGAGGAGGUUUAUCGAAUAUUCGGCGGAUGCCUGCAAA [C10A G29C U55A C70G],9.79e-05 ± 2.6e-05

row,Variant,self-cleavage kobs at 2500 uM GlcN6P [s⁻¹]
1,AUAAAAGCGCCAGAACUACAGAAAUGUAGUUGACGAAGAGGAGGUUUAGCGAAUUUUCGGCGGAUGCCUUCAAA [G37A U49G C70U],7.97e-05 ± 2e-05
2,AUAAAAGCGCGAGAACUACAGAAAUGUAGUUGACGAGGAGGAGGUUUAUCGUAUUUUCGGCGGAUGCUUCCAAA [C11G A52U C68U],< 1e-05
3,AUAAAAGCGCCAGAACUACAGAAAUGUAUUUGACGAGGAAGAGGUUUAUCGAAUUUUCGGCGGAAGCCUCCAAA [G29U G40A U65A],3.42e-05 ± 1.6e-05
4,AUAAAAGCGCCAGAACUACAGAAAUGUAGUUGACUGGGAGGAGGCUUAUCGAAUUUUCGGCGGAGGCCUCCAAA [G35U A36G U45C U65G],< 1e-05
5,AUAAAAGCGCCAGAACUACAGAAAUGUAGUUGACGAGGCGGAGGUUCAUCGAAUAUUCGGCGGAUGCCUCCAAA [A39C U47C U55A],0.000971 ± 0.00023
6,AUAAAAGCGCCAGAACUACAGAAAUGUAGAUGUAGCCGAGGAGGUUUAUCGAAUUUGCGGCGGAUGCCUCCAAA [U30A A33U C34A A36C G37C U57G],< 1e-05
7,AUAAAAGCGCCAGAACUACAGAAAUGUAGUAGACGAGGUGGAGGUUUAUCGAAUUUUCGGCGGAUGCCUGCAAA [U31A A39U C70G],0.000232 ± 7.5e-05
8,AUAAAAGCGCCAGAGCUACAGAAAUGUAGUUGACGUGGAGGACGUUUAUCGAAUUUUCGGCGGAUGCCUCCAAA [A15G A36U G43C],< 1e-05
9,AUAAAAGCGCCAGAACUACAGAAAUGUAGUUGACGAGUAGUAGGUUUAUGGAAUUUUCGGCGGAUGCGUCCAAA [G38U G41U C50G C68G],< 1e-05
10,AUAAAAGCGCCAGAACUACAGAAAUGUAGUUGACGAGGAGGAGGUUUAUCGAAUAUUCAGCGGGUGCCUCCAAA [U55A G59A A64G],2.94e-05 ± 1.4e-05
11,AUAAAAGCGCCAGAACUACAGAAAUGUAGUUGACGAGGAGGUGGUUUGUCGAAUUUUCGGAGGAUGCCUCCAAA [A42U A48G C61A],< 1e-05
12,AUAAAGGCGCGAGAACUACAGAAAUGUAGUUGUCGAGGAGGAGGUUUAUCGAAUUUUCCGCGGAUGCCUCCAAA [A6G C11G A33U G59C],< 1e-05
13,AUAAAAGCGCCCGAACUACAGAAAUGUAGUUGACGAGGAGGAGGUAUAUCGAAUUUUCGGCGGAUGCCUCAAAA [A12C U46A C71A],6.86e-05 ± 2.4e-05
14,AUAAAAGCGCCAGAAUUACAGAAAUGUAGUUGACGAGGAGGAGGUUUAUCGAUUUUUCGGCGGUUGCCUCCAAA [C16U A53U A64U],4.5e-05 ± 2.3e-05
15,AUAAAAGUGCCAGAACUACAGAAAUGUAGUUGAUGAGGAGUAGGUUUAUCGAAUUUUCGGCGGAUGCCUCCAAA [C8U C34U G41U],< 1e-05
16,AUAAAAGCGCCCGAACUACAGAAAUGUAGUUGACGAGGAGGAGCUUUAUCGAAUUUUCGGCGGACGCCUCCAAA [A12C G44C U65C],< 1e-05
17,AUAAAAGCGCCAGAACUACAGAAAUGUAGUUGACGCGGAGGAGGUUUGUCGAAUUUUCGGCGGAUGCCUGCAAA [A36C A48G C70G],< 1e-05

# Variants of: B1
# Assay: self-cleavage kobs at 10000 uM GlcN6P; higher = faster cleavage; RNA array
# Conditions: with glucosamine-6-phosphate
# Summary of the method: as §1
row,Variant,self-cleavage kobs at 10000 uM GlcN6P [s⁻¹]
1,AUAAAAGCGCCAGAACUACAGAAAUGUAGUUGACUGGGAGGAGGCUUAUCGAAUUUUCGGCGGAGGCCUCCAAA [G35U A36G U45C U65G],< 1e-05
2,AUAAAAGCGCCAGAACUACAGAAAUGUAGAUGUAGCCGAGGAGGUUUAUCGAAUUUGCGGCGGAUGCCUCCAAA [U30A A33U C34A A36C G37C U57G],< 1e-05
